From patent publication US20250352667A1 come the findings set out here.

In test [1] the target is KEAP1 (wild-type full-length), His-tagged (human) (UniProt Q14145). In words: AlphaScreen; 38.4 nM FLAG-NRF2, 150 nM His-KEAP1; Repeat 1 (same value as in Table 26).
Test [2] has the same target. Briefly: AlphaScreen; 38.4 nM FLAG-NRF2, 150 nM His-KEAP1; Rep 1; control for I86V.
For test [3] the target is unchanged. In words: AlphaScreen; mean over 9.6, 19.2 and 38.4 nM NRF2 wt isoform 1, KEAP1 150 nM; reference for I86V.
For test [4] the target is unchanged. In words: AlphaScreen; 153.6 nM FLAG-NRF2, 150 nM His-KEAP1; Rep 1; control for I86V.
Test [5] has the same target. Briefly: AlphaScreen; mean over 9.6, 19.2 and 38.4 nM NRF2; 150 nM His-KEAP1.
Test [6] shares this target. In words: AlphaScreen; 38.4 nM FLAG-NRF2, 150 nM His-KEAP1; Rep 1; control for I28V.
The target is the same in test [7]. In words: AlphaScreen; 307.2 nM FLAG-NRF2, 150 nM His-KEAP1; Rep 3; control for I86V.
For test [8] the target is unchanged. Briefly: AlphaScreen; NRF2 wt isoform 1 19.2 nM, KEAP1 150 nM; signal against NRF2-only control; control for I86V.
The target is the same in test [9]. In words: AlphaScreen; NRF2 wt isoform 1 38.4 nM, KEAP1 150 nM; signal against NRF2-only control; control for I86V.
Test [10] shares this target. In words: AlphaScreen; FLAG-NRF2 wt isoform 1 38.4 nM, His-KEAP1 150 nM; Rep 1; positive control for I86V.
For test [11] the target is unchanged. In words: AlphaScreen; 307.2 nM FLAG-NRF2, 150 nM His-KEAP1; Rep 1; control for I86V.
Test [12] shares this target. Briefly: AlphaScreen; 614.4 nM FLAG-NRF2, 150 nM His-KEAP1; Rep 1; control for I86V.
Test [13] has the same target. Briefly: AlphaScreen; FLAG-NRF2 wt isoform 1 38.4 nM, His-KEAP1 150 nM; Rep 3; positive control for I86V.
For test [14] the target is unchanged. In words: AlphaScreen; 38.4 nM FLAG-NRF2, 150 nM His-KEAP1; Repeat 2 (same value as in Table 26).
For test [15] the target is unchanged. Briefly: AlphaScreen, all variants on one plate; optimal condition (19.2 nM NRF2), KEAP1 150 nM; the reference itself.
For test [16] the target is unchanged. In words: AlphaScreen; 1228.8 nM FLAG-NRF2, 150 nM His-KEAP1; Rep 3; control for I86V.
For test [17] the target is unchanged. Briefly: AlphaScreen; 19.2 nM FLAG-NRF2, 150 nM His-KEAP1; Rep 2; control for I28V.
For test [18] the target is unchanged. Briefly: AlphaScreen; 9.6 nM FLAG-NRF2, 150 nM His-KEAP1; signal against NRF2 only; control for I28V.
The target is the same in test [19]. In words: AlphaScreen; 9.6 nM FLAG-NRF2, 150 nM His-KEAP1; Repeat 2 (same value as in Table 27).
Test [20] has the same target. In words: AlphaScreen; FLAG-NRF2 Q75R 38.4 nM, His-KEAP1 150 nM; Rep 2.
For test [21] the target is unchanged. In words: AlphaScreen; NRF2 Q75R 38.4 nM, KEAP1 150 nM; relative to wild-type NRF2 isoform 1 (100 %).
Test [22] has the same target. In words: AlphaScreen; NRF2 Q75R 9.6 nM, KEAP1 150 nM; relative to wild-type NRF2 isoform 1 (100 %).
Test [23] shares this target. In words: AlphaScreen; FLAG-NRF2 Q75R 38.4 nM, His-KEAP1 150 nM; Repeat 2.
Test [24] has the same target. In words: AlphaScreen; FLAG-NRF2 I86V 2.4 nM, His-KEAP1 150 nM; Rep 3.
Test [25] has the same target. In words: AlphaScreen; FLAG-NRF2 I86V 19.2 nM, His-KEAP1 150 nM; Rep 3.
The target is the same in test [26]. In words: AlphaScreen; FLAG-NRF2 I86V 38.4 nM, His-KEAP1 150 nM; Rep 3.
The target is the same in test [27]. In words: AlphaScreen; FLAG-NRF2 I86V 614.4 nM, His-KEAP1 150 nM; Rep 3.

KEAP1 (wild-type full-length), His-tagged (human), sequence (Q14145 2-624 limits assumed): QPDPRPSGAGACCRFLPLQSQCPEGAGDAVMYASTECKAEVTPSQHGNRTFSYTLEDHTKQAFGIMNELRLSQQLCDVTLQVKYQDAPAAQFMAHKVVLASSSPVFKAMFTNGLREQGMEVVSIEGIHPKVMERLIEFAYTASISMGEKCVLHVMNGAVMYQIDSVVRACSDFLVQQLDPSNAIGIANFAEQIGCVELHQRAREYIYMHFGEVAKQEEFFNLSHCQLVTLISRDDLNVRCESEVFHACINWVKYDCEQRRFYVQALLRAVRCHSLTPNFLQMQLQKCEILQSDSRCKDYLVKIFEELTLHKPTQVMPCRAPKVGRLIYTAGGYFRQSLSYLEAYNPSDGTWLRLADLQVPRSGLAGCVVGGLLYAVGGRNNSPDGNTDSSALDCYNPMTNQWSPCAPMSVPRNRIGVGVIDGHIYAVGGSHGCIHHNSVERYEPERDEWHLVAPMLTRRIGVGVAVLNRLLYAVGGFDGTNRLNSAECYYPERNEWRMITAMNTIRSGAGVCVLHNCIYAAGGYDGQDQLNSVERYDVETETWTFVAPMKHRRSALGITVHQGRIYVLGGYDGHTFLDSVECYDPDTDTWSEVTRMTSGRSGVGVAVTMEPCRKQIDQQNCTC

B1: NRF2 isoform 1 (wild-type full-length), FLAG-tagged (protein)
chain: MMDLELPPPGLPSQQDMDLIDILWRQDIDLGVSREVFDFSQRRKEYELEKQKKLEKERQEQLQKEQEKAFFAQLQLDEETGEFLPIQPAQHIQSETSGSANYSQVAHIPKSDALYFDDCMQLLAQTFPFVDDNEVSSATFQSLVPDIPGHIESPVFIATNQAQSPETSVAQVAPVDLDGMQQDIEQVWEELLSIPELQCLNIENDKLVETTMVPSPEAKLTEVDNYHFYSSIPSMEKEVGNCSPHFLNAFEDSFSSILSTEDPNQLTVNSLNSDATVNTDFGDEFYSAFIAEPSISNSMPSPATLSHSLSELLNGPIDVSDLSLCKAFNQNHPESTAEFNDSDSGISLNTSPSVASPEHSVESSSYGDTLLGLSDSEVEELDSAPGSVKQNGPKTPVHSSGDMVQPLSPSQGQSTHVHDAQCENTPEKELPVSPGHRKTPFTKDKHSSRLEAHLTRDELRAKALHIPFPVEKIINLPVVDFNEMMSKEQFNEAQLALIRDIRRRGKNKVAAQNCRKRKLENIVELEQDLDHLKDEKEKLLKEKGENDKSLHLLKKQLSTLYLEVFSMLRDEDGKPYSPSEYSLQQTRDGNVFLVPKSKKPDVKKN
With B1, the A-counts in test [1] was found to be 2000 A-counts; in test [2] it was 3100 A-counts; in [4] it was 3060 A-counts; in [6], 2000 A-counts; in test [7], 2910 A-counts; in [11] it was 2640 A-counts. Besides, the A-counts in test [12] is 2660 A-counts; in [14], 1900 A-counts; in test [16], 2610 A-counts; in [17], 2000 A-counts. The Average Binding in [3] and in test [5] was 100% throughout. Also, the S/N in test [8] stood at 4.1; in [9] it was 3; in test [18], 4.1. Besides, the results for the A-counts (NRF2 plus KEAP1) in test [10] and in test [13] were 3100 A-counts and 3130 A-counts, respectively. Besides, the % Disruption in Binding in test [15] is 0%.

B2: NRF2 isoform 1 (I28V full-length), FLAG-tagged (protein)
chain: MMDLELPPPGLPSQQDMDLIDILWRQDVDLGVSREVFDFSQRRKEYELEKQKKLEKERQEQLQKEQEKAFFAQLQLDEETGEFLPIQPAQHIQSETSGSANYSQVAHIPKSDALYFDDCMQLLAQTFPFVDDNEVSSATFQSLVPDIPGHIESPVFIATNQAQSPETSVAQVAPVDLDGMQQDIEQVWEELLSIPELQCLNIENDKLVETTMVPSPEAKLTEVDNYHFYSSIPSMEKEVGNCSPHFLNAFEDSFSSILSTEDPNQLTVNSLNSDATVNTDFGDEFYSAFIAEPSISNSMPSPATLSHSLSELLNGPIDVSDLSLCKAFNQNHPESTAEFNDSDSGISLNTSPSVASPEHSVESSSYGDTLLGLSDSEVEELDSAPGSVKQNGPKTPVHSSGDMVQPLSPSQGQSTHVHDAQCENTPEKELPVSPGHRKTPFTKDKHSSRLEAHLTRDELRAKALHIPFPVEKIINLPVVDFNEMMSKEQFNEAQLALIRDIRRRGKNKVAAQNCRKRKLENIVELEQDLDHLKDEKEKLLKEKGENDKSLHLLKKQLSTLYLEVFSMLRDEDGKPYSPSEYSLQQTRDGNVFLVPKSKKPDVKKN
In the case of B2, in test [19], the A-counts was 1560 A-counts.

B3: NRF2 isoform 1 (Q75R full-length), FLAG-tagged (protein)
chain: MMDLELPPPGLPSQQDMDLIDILWRQDIDLGVSREVFDFSQRRKEYELEKQKKLEKERQEQLQKEQEKAFFAQLRLDEETGEFLPIQPAQHIQSETSGSANYSQVAHIPKSDALYFDDCMQLLAQTFPFVDDNEVSSATFQSLVPDIPGHIESPVFIATNQAQSPETSVAQVAPVDLDGMQQDIEQVWEELLSIPELQCLNIENDKLVETTMVPSPEAKLTEVDNYHFYSSIPSMEKEVGNCSPHFLNAFEDSFSSILSTEDPNQLTVNSLNSDATVNTDFGDEFYSAFIAEPSISNSMPSPATLSHSLSELLNGPIDVSDLSLCKAFNQNHPESTAEFNDSDSGISLNTSPSVASPEHSVESSSYGDTLLGLSDSEVEELDSAPGSVKQNGPKTPVHSSGDMVQPLSPSQGQSTHVHDAQCENTPEKELPVSPGHRKTPFTKDKHSSRLEAHLTRDELRAKALHIPFPVEKIINLPVVDFNEMMSKEQFNEAQLALIRDIRRRGKNKVAAQNCRKRKLENIVELEQDLDHLKDEKEKLLKEKGENDKSLHLLKKQLSTLYLEVFSMLRDEDGKPYSPSEYSLQQTRDGNVFLVPKSKKPDVKKN
As for B3, the A-counts (NRF2 plus KEAP1) in test [20] and in [23] was 1280 A-counts throughout. The Binding Percentage was found to be 73.4% in [21] and 72.4% in [22].

B4: NRF2 isoform 1 (I86V full-length), FLAG-tagged (protein)
chain: MMDLELPPPGLPSQQDMDLIDILWRQDIDLGVSREVFDFSQRRKEYELEKQKKLEKERQEQLQKEQEKAFFAQLQLDEETGEFLPVQPAQHIQSETSGSANYSQVAHIPKSDALYFDDCMQLLAQTFPFVDDNEVSSATFQSLVPDIPGHIESPVFIATNQAQSPETSVAQVAPVDLDGMQQDIEQVWEELLSIPELQCLNIENDKLVETTMVPSPEAKLTEVDNYHFYSSIPSMEKEVGNCSPHFLNAFEDSFSSILSTEDPNQLTVNSLNSDATVNTDFGDEFYSAFIAEPSISNSMPSPATLSHSLSELLNGPIDVSDLSLCKAFNQNHPESTAEFNDSDSGISLNTSPSVASPEHSVESSSYGDTLLGLSDSEVEELDSAPGSVKQNGPKTPVHSSGDMVQPLSPSQGQSTHVHDAQCENTPEKELPVSPGHRKTPFTKDKHSSRLEAHLTRDELRAKALHIPFPVEKIINLPVVDFNEMMSKEQFNEAQLALIRDIRRRGKNKVAAQNCRKRKLENIVELEQDLDHLKDEKEKLLKEKGENDKSLHLLKKQLSTLYLEVFSMLRDEDGKPYSPSEYSLQQTRDGNVFLVPKSKKPDVKKN
On to B4, for which the A-counts (NRF2 plus KEAP1) in test [24] was 1680 A-counts; in test [25] it was 2970 A-counts; in test [26], 2930 A-counts; in test [27] it was 1920 A-counts.
